From US20180051059A1 come the findings set out here.

The assay addresses endogenous Ldb1 complexes at the LCR (in G1E cells) (UniProt P70662). In words: cell-based or functional assay.
Chain of UniProt P70662 (P70662 2-411 limits assumed, one chain of several): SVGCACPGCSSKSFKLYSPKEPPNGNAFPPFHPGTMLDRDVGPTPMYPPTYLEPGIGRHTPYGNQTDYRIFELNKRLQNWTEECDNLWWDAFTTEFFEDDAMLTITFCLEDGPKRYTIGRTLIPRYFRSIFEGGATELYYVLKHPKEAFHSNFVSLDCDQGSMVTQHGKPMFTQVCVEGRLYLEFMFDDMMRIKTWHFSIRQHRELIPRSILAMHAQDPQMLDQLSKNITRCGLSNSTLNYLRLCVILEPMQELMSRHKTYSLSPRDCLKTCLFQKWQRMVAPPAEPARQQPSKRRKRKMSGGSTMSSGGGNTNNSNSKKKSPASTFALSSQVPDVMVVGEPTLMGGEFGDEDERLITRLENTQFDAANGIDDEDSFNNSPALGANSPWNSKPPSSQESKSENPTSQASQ

“P-Ldb1 (P-ZF, zinc finger protein targeting the β-major promoter, fused to full length Ldb1)” yielded a β-globin transcription in G1E cells (RT-qPCR) of more than 1000 fold.
